ADK activity (labeled 5′-AMP from adenosine and γ32P-ATP) with a two-fold molar excess of HA2His6-SnRK1-KD, against ADK+GFP and ADK activity against increasing HA2His6-SnRK1-KD:ADK molar ratio, up to 4∶1 data for 1 substance are collected here from publication PMC3907550.

For test [1], the target named is HA2His6-tagged Arabidopsis ADK (Arabidopsis) (UniProt Q9LZG0).
The target is the same in test [2]. This is another data set of the same source.

Sequence of UniProt Q9LZG0 (Q9LZG0 whole entry): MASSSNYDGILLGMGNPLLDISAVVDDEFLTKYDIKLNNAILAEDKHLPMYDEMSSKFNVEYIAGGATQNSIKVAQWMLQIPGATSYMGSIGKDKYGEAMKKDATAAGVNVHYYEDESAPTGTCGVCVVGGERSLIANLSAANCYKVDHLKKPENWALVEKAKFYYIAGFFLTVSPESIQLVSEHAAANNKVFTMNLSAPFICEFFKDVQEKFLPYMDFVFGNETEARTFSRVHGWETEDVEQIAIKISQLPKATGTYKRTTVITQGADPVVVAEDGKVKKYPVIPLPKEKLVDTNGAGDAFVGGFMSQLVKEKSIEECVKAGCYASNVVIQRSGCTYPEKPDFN

“HA2His6-tagged SnRK1 kinase domain (SnRK1-KD; amino acids 1-343) (from UniProt P92958 1-343) (domain or fragment)”: the ADK activity (labeled 5′-AMP from adenosine and γ32P-ATP) with a two-fold molar excess of HA2His6-SnRK1-KD, against ADK+GFP in test [1] is 6 fold. In addition, in test [2], the ADK activity against increasing HA2His6-SnRK1-KD:ADK molar ratio, up to 4∶1 is 90 % of maximum.
